B1: GMCL1 (parent)
chain: FCYCAGSHKRKRSSGSFCYCHPDS
B2: DVL3 (parent)
chain: SDVVDWLYHNVEGFTDRREARKYA

Variants of: B1
Assay: protein stability index of a GFP-peptide fusion (GPS, HEK-293T) (PSI 1-6); higher = more stable
Settings: c terminus: a fixed tail appended
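Also: lentivirally expressed fusions sorted by FACS into six bins by GFP to DsRed ratio, PSI derived from sequencing read proportions per bin multiplied by bin number.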

Protein stability index, by site and new letter:
S13: K 1.96; D 2.74; C 2.17; R 1.85; H 2.21; W 1.84; G 1.56; N 1.64; Y 1.7; F 2.24; T 2.11; Q 1.7
G15: M 1.21; W 2.26; D 2.25; E 2.67; I 2.41; K 1.72; S 2.17; R 1.62; F 1.8; Y 2.56; V 2.6
S7: N 2.16; G 1.02; H 1.59; D 1.55; R 2.34; M 1.98; W 1.9; F 2.54; V 1.93; K 2.29; A 2.15; L 1.89; Q 1.77; T 2.98; P 1.7; Y 1.59
S14: N 2.37; V 1.89; M 2.04; G 1.89; R 2.02; W 2.03; P 1.93; F 2.35; C 1.86; T 1.46; D 2.18; A 2.2
S24: W 1.38; F 1.61; Y 1.84; M 1.78; H 2.09; N 2.12; P 1.88; V 2.12; T 2.02; I 2.03; R 2.28; D 1.87; G 2.46; L 1.91; E 2.51; Q 2.9
K9: G 1.57; I 1.94; C 2; W 2.62; D 1.99; L 1.99; E 2.14; F 2.13; V 2.57; Y 2.8; M 1.77; T 1.29
F17: P 2.98; E 3.01; S 1.78; V 2.04; M 2.15; Y 2.25; W 1.9; K 2.17; R 2.53; H 2.46; G 2.19; A 2.11; Q 2.61
A5: H 2.26; S 2; N 2.03; V 2.67; T 1.38; G 1.5; C 1.65; F 2.37; E 2.33; K 2.53; I 3.03; L 1.57
K11: N 1.93; G 1.97; C 1.77; D 2.45; L 2.41; P 2.31; E 1.87; R 1.98; H 2.18; Q 1.33; W 2.03; F 1.68; I 2.92; S 2.85; M 2.29; Y 2.95
C18: Y 1.14; A 2.74; D 1.87; K 1.95; Q 2.63; W 2.99; G 2.18; V 1.83; R 1.63; H 1.77; T 1.79; S 2.65
P22: F 1.38; N 2.69; V 1.96; A 2.64; K 2.09; W 2.27; Q 1.91; R 2.1; S 2.53; L 1.63; H 2.29; T 1.32; I 1.47; E 2.01; M 1.85; G 2.44; Y 2.02; C 2.12
H21: S 2.87; V 2.51; D 2.47; E 2.73; Q 2.74; W 1.63; I 2.69; C 1.11; R 2.54; P 2.21; F 2.51; Y 2.43; A 2.41
H8: M 1.66; K 1.99; R 1.9; S 2.33; L 1.1; I 1.48; D 1.67; V 1.89; T 1.67; W 2.59; C 2.37
C2: R 3.48; L 1.79; H 1.81; K 2.06; I 1.94; Y 2.03; D 2.79; Q 3.31; W 1.79; S 2.25
G6: N 2.92; R 2.05; Q 2; S 2.39; H 1.94; E 1.86; W 2.84; K 1.5; I 1.54; D 1.91; C 2.53; F 1.92; L 2.44; Y 2.59; P 1.34; V 2.68; M 2.48
C4: H 1.35; A 1.29; K 2.07; D 1.74; W 2.56; N 2.26; S 2.55; I 1.56; E 2.01; V 2.27
R10: M 1.9; S 1.82; Q 2.29; Y 1.85; F 1.4; E 2.5; T 2.27; A 2.48; H 1.68; D 2.02; I 2.32; V 1.81; L 1.99
Y19: H 2.67; Q 3.03; E 3.63; C 2.86; F 2.31; K 3.4; R 3.17; D 2.9; T 3.6; W 1.28; L 1.96
D23: H 1.88; R 1.99; G 2.27; N 1.92; K 2.42; S 1.94; E 2.13; I 1.83; Q 2.34; M 2.39; V 1.44; C 1.28; P 2.86
R12: I 1.75; G 1.38; T 2.43; K 1.97; L 1.63; C 1.85; Y 2.56; N 2.01; W 2.9; V 1.89; A 2.04; D 2.06; F 1.64; E 1.15
Y3: T 2.99; N 2.67; D 2.2; G 1.7; L 2.96; V 2.07; K 2.82; I 2.46; R 2.3; A 2.37; W 2.88; P 1.76
C20: N 1.99; H 2; F 1.84; K 1.58; Y 1.71; W 1.95; P 1.94; E 1.88; D 2.73; I 2.06; S 1.5; Q 1.5
S16: A 2.33; Q 1.69; D 1.88; F 2.41; E 3.31; H 2; V 2.16; C 1.91; M 2.44; T 2.29; K 3.24; W 2.06
F1: Q 3.82; A 4.19; L 2.8; E 4.31; K 3.78; M 3.46; Y 1.55; H 3.17; T 3.34; V 3.65; P 4.21; D 4.2

Variants of: B2
Assay: as above
Settings: c terminus: a fixed tail appended

Protein stability index, by site and new letter:
S1: C 2.71; D 3.92; E 3.76; F 2.23; G 3.78; H 3.27; I 2; K 2; L 3.51; N 3.42; P 2.15; Q 2.9; R 2.52; T 3.1; V 3.5
D2: A 1.85; C 2.16; E 3.01; F 1.9; G 2.89; H 2.91; I 2.46; K 2.73; L 2.12

Source: the supplement of paper PMC10567573
